Results as given in patent US12692324B2, “Anti-chitinase-3-like protein-1 (YKL-40) neutralizing antibody and uses thereof” (Institute of Nuclear Energy Research, Atomic Energy …, priority 2022, dated 2026).
“Also recorded” adds a separate entry of the source.

B1: YKL-40 neutralizing antibody: isolated neutralizing antibody specifically binding chitinase-3-like protein-1 (YKL-40); VH SEQ ID NO: 7, VL SEQ ID NO: 8 (antibody, V domains shown)
VH: QIQLVQSGPELKKPGETVRISCKASGYTFPNYGMNWVKQAPGKGLKWMGWINTYTGEPTYTVDFKGQFAFSLETSASTAYLQINNLKNEDTATYFCARSFYGTNGFDYWGQGTTLTVSS
VL: NIVMTQSPKSMSMSVGERVTLSCKASENVGTYVSWYQQKPEQSPKLVIYGASNRYIGVPDRFTGSGSATDFTLTISSVEAEDLADYHCGQSYSYPPTFGGGTKLEIK
modifications: recombinant YKL-40 neutralizing antibody

How the values were obtained:
[1] = system: human ovarian cancer cell CA5171; settings: for proportion of Annexin V/7-AAD-positive apoptosis: CA5171, 50 μg/mL YKL-40 neutralizing antibody and/or 2.5 nM paclitaxel, 37° C., 48 hours
Protocol: It is important to know whether the YKL-40 neutralizing antibody of the present disclosure can induce cell apoptosis after combining with human ovarian cell CA5171. In this experiment, two specific dyes “7-amino-actinomycin D” (7-AAD) and “Annexin V” are used in the flow cytometry analysis to detect if the YKL-40 neutralizing antibody induces the cell apoptosis. In addition, the combination treatment of the chemotherapy drug paclitaxel and the YKL-40 neutralizing antibody is also analyzed in this experiment.
The experiment procedure applied herein is, firstly, to treat human ovarian cancer cell CA5171 with a final concentration of 50 μg/mL YKL-40 neutralizing antibody and/or 2.5 nM paclitaxel, then culture them at 37° C. for 48 hours. The control group is treated with normal saline. After the culturing, the cells are collected and stained with 7-AAD and FITC-conjugated annexin V (FITC, Fluorescein isothiocyanate) dyes for 30 minutes. After staining, the cells are washed by using cytometer analysis solution (normal saline with a final concentration of 0.2% fetal bovine serum and 0.5% sodium azide), and then analyzed by flow cytometry.

[2] = system: CA5171 ovarian cancer cells, which overexpress chitinase-3-like protein-1; assay: Nano SPECT/CT bioimaging in tumor-carried mice; format: in vivo; settings: tail vein injection
Source text: In order to verify these research results in a tumor-carried animal model, the CA5171 ovarian cancer cells, which overexpress chitinase-3-like protein-1, are inoculated in the left hind limb of the experiment animals. After the tumor volume grow to 200-300 mm3, use indium-111-DTPA-YKL-40 antibody complex as a radio-diagnostic drug for tumor mapping. The method of administration of diagnostic drugs is to inject the indium-111-DTPA-YKL-40 antibody complex by tail vein injection. Three tumor-carried mice are used as the animal model in both control and treatment groups, and the cross-sections of transverse, sagittal, and coronal are then taken at different time points such as 1, 4, 24 and 48 hours after administration. The tumor-carried mice of the control group are injected with indium-111-DTPA only, without YKL-40 antibody complex. […] The accumulation of the radioactive drug can at least last for 24 hours as shown in the results.

[3] = system: human ovarian cancer cell CA5171; assay: Binding ability of antibody to human ovarian cancer cell CA5171 by flow cytometry; format: cell-based
Protocol: When the YKL-40 neutralizing antibody of the present disclosure is isolated and purified, its binding ability to human ovarian cell CA5171 is then evaluated by flow cytometry. In this example, the antibody of the control group and YKL-40 neutralizing antibody are respectively added to the culture of the ovarian cell CA5171. After a period of culturing, the human ovarian cell CA5171 are then analyzed by flow cytometry. Please refer to FIGS. 1A and 1B. […] From the results, the binding ability of the control group antibody IgG is 28.69%, while the binding ability of the YKL-40 neutralizing antibody is as high as 71.57%.

| Molecule | proportion of Annexin V/7-AAD-positive apoptosis [1] | time the radioactive drug sustains in the abdominal organs [2] [h] | binding ability ([3]; human ovarian cell CA5171) [%] | binding to CA5171 cells (in words) ([3]; versus control IgG antibody) | cytotoxicity (in words) [1] |
| --- | --- | --- | --- | --- | --- |
| CC(=O)O[C@H]1C(=O)[C@@]2(C)[C@H]([C@H](OC(=O)c3ccccc3)[C@]3(O)C[C@H](OC(=O)[C@H](O)[C@@H](NC(=O)c4ccccc4)c4ccccc4)C(C)=C1C3(C)C)[C@]1(OC(C)=O)CO[C@@H]1C[C@@H]2O [paclitaxel, reference compound] | 43.90%±0.35% | – | – | – | – |
| O=C([O-])CN(CCN(CC(=O)[O-])CC(=O)[O-])CCN(CC(=O)[O-])CC(=O)[O-].[111In+3].[H+].[H+] [indium-111-DTPA] | – | 1 | – | – | – |
| B1 | 3.91±0.11% | – | 71.57 | stronger binding ability to CA5171 ovarian cells than the control group; also recorded: can significantly bind to human ovarian cancer cell CA5171 | not observed to be cytotoxic |
